Our source for the Kd values is patent JP2018087218A (dated 2018).

The target of the experiment is T1, ヒトCD38 (SPRで注入されたCD38) (human, UniProt P28907 43-300).
T1 sequence: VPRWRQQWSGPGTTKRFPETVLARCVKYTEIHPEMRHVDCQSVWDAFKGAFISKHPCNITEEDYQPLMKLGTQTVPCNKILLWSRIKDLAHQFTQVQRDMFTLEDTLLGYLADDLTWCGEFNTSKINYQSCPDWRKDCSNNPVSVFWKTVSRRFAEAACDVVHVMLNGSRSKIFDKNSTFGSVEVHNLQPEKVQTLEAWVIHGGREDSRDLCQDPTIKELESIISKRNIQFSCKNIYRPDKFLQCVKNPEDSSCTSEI
In words: SPR (Biacore), antibody captured on protein A, CD38 injected. In general terms: SPR reads the build-up and loss of mass on a sensor chip optically.

B1: X02.1 (antibody, human IgG4 S228P, lambda, V domains shown)
VH: QLQLQESGPGLVKPSETLSLTCTVSGGSISSSSYYWSWIRQHPGKGLEWIGYIYYSGSTNYNPSLKSRVTISVDTLKNQISLRLTSVTAADTAVYYCARVGGAGGWPMDVWGQGTTVTVSS
VL: QAVLTQPASLSASPGESARLTCTLPSDINVRYYNIYWYQQKPGSPPRYLLYYYSDSHKGQGSGVPSRFSGSKDVSTNSGILLISGLQSEDEADYYCMTWSSNGSGVFGGGTQLTVLG
notes: X02.1 has no IFN fusion; also called 親抗体X02.1; A02.1 (X355/02-HC-L0-IFN-アルファ(A145D)IgG4) の非融合抗体
Turning to B1, the dissociation constant Kd (in general, the constant that tells how readily two partners part at equilibrium) is 0.378 to 27 nM.
